To fix the notation:
B1: mouse AGR2 (21-175), wild-type [mouse] / MBP-hIRE1b_LD_(35-428)-AviTag-His7 [modified: biotin on the AviTag (endogenous biotinylation of a fraction of the protein in E. coli); biotin on the AviTag (endogenous biotinylation of a fraction of … (parent complex)
chain 1: KDTTVKSGAKKDPKDSRPKLPQTLSRGWGDQLIWTQTYEEALYRSKTSNRPLMVIHHLDECPHSQALKKVFAEHKEIQKLAEQFVLLNLVYETTDKHLSPDGQYVPRIVFVDPSLTVRADITGRYSNRLYAYEPSDTALLYDNMKKALKLLKTEL
chain 2: LRPENLLLVSTLDGSLHALSKQTGDLKWTLRDDPVIEGPMYVTEMAFLSDPADGSLYILGTQKQQGLMKLPFTIPELVHASPCRSSDGVFYTGRKQDAWFVVDPESGETQMTLTTEGPSTPRLYIGRTQYTVTMHDPRAPALRWNTTYRRYSAPPMDGSPGKYMSHLASCGMGLLLTVDPGSGTVLWTQDLGVPVMGVYTWHQDGLRQLPHLTLARDTLHFLALRWGHIRLPASGPRDTATLFSTLDTQLLMTLYVGKDETGFYVSKALVHTGVALVPRGLTLAPADGPTTDEVTLQVSGEREGSPSTAVRYPSGSVALPSQWLLIGHHELPPVLHTTMLRVHPTLGSGTAETRPPENTQAPAFFLELLSLSREKLWDSELHPEEKTPDSYLGL

The variants in one experiment derive from B1. Put plainly: BLI; HK buffer supplemented with 0.05% Triton X-100 and 1 mM TCEP; 30 °C; IRE1β LD probe immobilised on streptavidin biosensors; parent: 19 nM.
For chain 1 C61E, the screen value turned out to be 78.5 µM.

Regarding chain 1 C61S, the screen value is 124 µM.

In a further experiment the parent is B1. Put plainly: BLI; 90 µM AGR2 variant (highest concentration point); HK buffer supplemented with 0.05% Triton X-100 and 1 mM TCEP; 30 °C; parent: 0.6; read off a plot. For orientation: Biolayer interferometry detects binding as a change in optical thickness at a sensor tip.
For chain 1 C61E, the response is approximately 0.23 nm.

Turning to chain 1 C61S, the response was approximately 0.3 nm.

For the origin of these results see paper PMC10907699, “The IRE1β-mediated unfolded protein response is repressed by the chaperone AGR2 in mucin producing cells” (The EMBO Journal, 2023).
